# From patent US20210032365A1 (Chugai, published 2021)
# T1: human C1s (human, UniProt P09871 16-688)
# T1 construct: also called hC1s; serum-derived human C1s (CompTech)
# T1 sequence: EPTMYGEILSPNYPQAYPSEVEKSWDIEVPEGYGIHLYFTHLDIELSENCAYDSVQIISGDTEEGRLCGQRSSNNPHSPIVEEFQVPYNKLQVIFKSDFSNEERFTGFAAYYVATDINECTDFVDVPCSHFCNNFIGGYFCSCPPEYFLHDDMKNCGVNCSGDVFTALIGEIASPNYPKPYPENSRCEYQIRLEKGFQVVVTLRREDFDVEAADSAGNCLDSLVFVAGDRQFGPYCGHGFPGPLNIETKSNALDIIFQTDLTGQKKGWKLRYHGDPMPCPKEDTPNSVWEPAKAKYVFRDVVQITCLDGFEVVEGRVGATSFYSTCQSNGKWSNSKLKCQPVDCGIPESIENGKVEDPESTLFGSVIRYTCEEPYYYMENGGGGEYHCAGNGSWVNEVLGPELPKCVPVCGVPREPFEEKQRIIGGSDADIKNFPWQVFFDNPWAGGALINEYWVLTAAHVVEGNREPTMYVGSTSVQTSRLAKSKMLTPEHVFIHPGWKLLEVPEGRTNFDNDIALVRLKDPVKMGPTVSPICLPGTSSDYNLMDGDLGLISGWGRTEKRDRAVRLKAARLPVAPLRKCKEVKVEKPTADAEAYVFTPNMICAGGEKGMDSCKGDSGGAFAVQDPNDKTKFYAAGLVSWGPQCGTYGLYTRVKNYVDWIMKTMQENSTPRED
# T2: human C1s (human, UniProt P09871 16-688)
# T2 construct: Analyte in the Biacore assays; also called hC1s; serum-derived human C1s (CompTech)
# T2 sequence: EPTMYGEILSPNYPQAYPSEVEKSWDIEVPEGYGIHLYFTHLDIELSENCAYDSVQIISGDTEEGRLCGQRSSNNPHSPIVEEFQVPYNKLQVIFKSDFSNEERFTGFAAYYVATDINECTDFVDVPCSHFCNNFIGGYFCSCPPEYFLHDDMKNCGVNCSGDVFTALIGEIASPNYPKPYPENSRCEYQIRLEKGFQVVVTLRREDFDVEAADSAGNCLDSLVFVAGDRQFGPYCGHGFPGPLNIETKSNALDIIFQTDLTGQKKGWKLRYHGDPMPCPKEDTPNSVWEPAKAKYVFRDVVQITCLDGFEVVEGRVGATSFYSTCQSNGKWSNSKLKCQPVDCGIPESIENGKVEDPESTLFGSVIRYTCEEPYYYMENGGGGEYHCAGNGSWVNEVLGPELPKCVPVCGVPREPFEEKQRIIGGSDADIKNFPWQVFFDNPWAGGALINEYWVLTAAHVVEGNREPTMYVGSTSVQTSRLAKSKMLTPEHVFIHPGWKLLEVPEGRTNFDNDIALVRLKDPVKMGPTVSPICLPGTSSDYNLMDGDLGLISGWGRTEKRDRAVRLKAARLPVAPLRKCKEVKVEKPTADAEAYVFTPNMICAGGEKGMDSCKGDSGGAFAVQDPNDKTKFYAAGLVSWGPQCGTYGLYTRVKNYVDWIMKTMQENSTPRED
# Key:
# [1] = molecular target: T1, human C1s; test: SPR, Ab captured; pH 7.4, 1.2 mM Ca
# Method: (§1) All variants were transiently expressed and purified by the method described above. The binding affinity of each histidine-substituted variant at pH 7.4 and pH 5.8 was determined at 37 degrees C. using Biacore T200 instrument (GE Healthcare). Recombinant Protein A/G (Pierce) was immobilized onto all flow cells of a CM4 sensor chip using an amine coupling kit (GE Healthcare). Antibodies and analytes were prepared in 7(+) buffer (20 mM ACES, 150 mM NaCl, 1.2 mM CaCl2, 0.05% Tween 20, 0.005% NaN3, pH 7.4), 5(+) buffer (20 mM ACES, 150 mM NaCl, 1.2 mM CaCl2, 0.05% Tween 20, 0.005% NaN3, pH 5.8), or 5(−) buffer (20 mM ACES, 150 mM NaCl, 3 micro M CaCl2, 0.05% Tween 20, 0.005% NaN3, pH 5.8). Each antibody was captured onto the sensor surface by protein A/G. Antibody capture levels were aimed at 200 resonance unit (RU). Serum-derived human C1s (CompTech) or recombinant C1s prepared in EXAMPLE 1 was injected at 50 nM, followed by dissociation. The sensor surface was regenerated in each cycle with 10 mM Glycine-HCl, pH 1.5. […] The ratio of KD 5.8+ to KD 7.4+(“KD 5+/7+”) and that of KD 5.8− to KD 7.4+(“KD 5−/7+”) were calculated. When the KD 5+/7+ or KD 5−/7+ of a variant is larger than that of the parent antibody IPN009VH2-SG4GK/IPN009VK3-SK1, that variant is considered to be “pH”- or “pH and Ca”-dependent, respectively. When binding response in 5(+) buffer and/or in 5(−) buffer of a variant is much lower than that of IPN09VH2/IPN009VK3, that variant is also considered as “pH”- and/or “pH and Ca”-dependent. Therefore, such mutations are effective to generate “pH”- and/or “pH and Ca”-dependent antibody. To further enhance “pH” and/or “pH and Ca” dependency, a combination of histidine mutations was conducted. Antibodies with combinations of histidine mutations were evaluated using Biacore by the method described above.
# [2] = molecular target: T1, human C1s; test: SPR; KD pH 5.8 1.2 mM Ca / KD pH 7.4 1.2 mM Ca
# Method: as §1
# [3] = molecular target: T1, human C1s; test: SPR, Ab captured; pH 5.8, 1.2 mM Ca
# Method: as §1
# [4] = molecular target: T1, human C1s; test: SPR, Ab captured; pH 7.4, 1.2 mM Ca; remark: listed apart in the source
# Method: (§2) Each antibody was captured onto the sensor surface by protein A/G. Antibody capture levels were aimed at 200 resonance unit (RU). Serum-derived human C1s (CompTech) or recombinant C1s prepared in EXAMPLE 1 was injected at 50 nM, followed by dissociation. The sensor surface was regenerated in each cycle with 10 mM Glycine-HCl, pH 1.5. […] The ratio of KD 5.8+ to KD 7.4+(“KD 5+/7+”) and that of KD 5.8− to KD 7.4+(“KD 5−/7+”) were calculated. When the KD 5+/7+ or KD 5−/7+ of a variant is larger than that of the parent antibody IPN009VH2-SG4GK/IPN009VK3-SK1, that variant is considered to be “pH”- or “pH and Ca”-dependent, respectively. When binding response in 5(+) buffer and/or in 5(−) buffer of a variant is much lower than that of IPN09VH2/IPN009VK3, that variant is also considered as “pH”- and/or “pH and Ca”-dependent. Therefore, such mutations are effective to generate “pH”- and/or “pH and Ca”-dependent antibody. To further enhance “pH” and/or “pH and Ca” dependency, a combination of histidine mutations was conducted. Antibodies with combinations of histidine mutations were evaluated using Biacore by the method described above.
# (§3) C1_1IPN92H0033 (SEQ ID NO: 17)-SG4GK/IPN93L0024 (SEQ ID NO: 18)-SK1 (IPN92H0033/IPN93L0024) was selected for further optimization. Histidine, Lysine, Arginine, aspartic acid, glutamic acid, and glutamine scanning was conducted for CDRs and certain positions of FRs of IPN92H0033/IPN93L0024. Variants with a mutation were generated and purified, and evaluated using Biacore by the method mentioned above. All variants were evaluated using Biacore as mentioned above. Mutations that improved “pH” and/or “pH and Ca” dependency were selected for the combination.
# [5] = molecular target: T1, human C1s; test: SPR; KD pH 5.8 3 uM Ca / KD pH 7.4 1.2 mM Ca
# Method: as §1
# [6] = molecular target: T1, human C1s; test: SPR, Ab captured; pH 5.8, 3 uM Ca
# Method: as §1
# [7] = molecular target: T2, human C1s; test: SPR (Biacore T200, 37C), Ab captured on protein A/G; pH 5.8, 1.2 mM Ca
# Method: as §2, §3
# [8] = molecular target: T2, human C1s; test: SPR (Biacore T200, 37C), Ab captured on protein A/G; pH 5.8, 3 uM Ca
# Method: as §2, §3
# [9] = molecular target: T2, human C1s; test: SPR; KD at pH 5.8 (1.2 mM Ca) over KD at pH 7.4 (1.2 mM Ca)
# Method: as §2, §3
# [10] = molecular target: T2, human C1s; test: SPR; KD at pH 5.8 (3 uM Ca) over KD at pH 7.4 (1.2 mM Ca)
# Method: as §2, §3
Binder,koff [1],kon [1],KD 5(+)/7(+) [2],koff [3],kon [3],KD 5(-)/7(+) [5],Kd [7],koff [7],kon [7],Kd [8],koff [8],kon [8],KD 5(+)/7(+) [9],KD 5(-)/7(+) [10],also measured
"C1_IPN92H0282-SG4GK/IPN93L0024-SK1 (antibody, human IgG4 S228P, kappa, name in Kabat numbering, V domains shown, Substitutions from IPN009VH2, Kabat numbering; also called IPN92H0282/IPN93L0024) VH: EVMLVESGGGLVKPGGSLRLSCAASGFTFSNYAMSWVRQAPGKGLEWVATISSGGSHTYELDSVDERFTISRDNSKDTLYLQMNSLRAEDTALYYCARLFTKHAMDYWGQGTLVTVSS VL: QIVLTQSPATLSLSPGERATLSCTASSSVSSSYLHWYQQKPGKAPKLWIYSTSNLASGVPSRFSGSGSGTDYTLTISSLQPEDFATYYCHQYYRLHPITFGQGTKLEIKR",–,–,–,–,–,–,18 nM,0.00998 s⁻¹,553000 M⁻¹ s⁻¹,8.55 nM,0.00327 s⁻¹,382000 M⁻¹ s⁻¹,10.9,5.18,–
"C1_IPN92H0282-SG4GK/IPN93L0091-SK1 (antibody, human IgG4 S228P, kappa, name in Kabat numbering, V domains shown, Substitutions from IPN009VH2 / IPN009VK3, Kabat numbering; also called IPN92H0282/IPN93L0091) VH: EVMLVESGGGLVKPGGSLRLSCAASGFTFSNYAMSWVRQAPGKGLEWVATISSGGSHTYELDSVDERFTISRDNSKDTLYLQMNSLRAEDTALYYCARLFTKHAMDYWGQGTLVTVSS VL: QIVLTQSPATLSLSPGERATLSCTASSSVSSSRLHWYQQKPGKAPKLWIYSTSNLASGVPSRFSGSGSGTDYTLTISSLQPEDFATYYCHQYYRLHPITFGQGTKLEIKR",–,–,–,–,–,–,16.9 nM,0.00755 s⁻¹,445000 M⁻¹ s⁻¹,2.21 nM,0.00148 s⁻¹,670000 M⁻¹ s⁻¹,8.6,1.13,–

# Continued, in another order:
koff [1],kon [1],KD 5(+)/7(+) [2],koff [3],kon [3],KD 5(-)/7(+) [5],Kd [7],koff [7],kon [7],Kd [8],koff [8],kon [8],KD 5(+)/7(+) [9],KD 5(-)/7(+) [10],Binder,also measured
0.000776 s⁻¹,268000 M⁻¹ s⁻¹,3,0.0045 s⁻¹,519000 M⁻¹ s⁻¹,1.8,–,–,–,–,–,–,–,–,"C1_IPN92H0033-SG4GK/IPN93L0024-SK1 (antibody, human IgG4 S228P, kappa, also called IPN92H0033/IPN93L0024) heavy: not shown light: QIVLTQSPATLSLSPGERATLSCTASSSVSSSYLHWYQQKPGKAPKLWIYSTSNLASGVPSRFSGSGSGTDYTLTISSLQPEDFATYYCHQYYRLHPITFGQGTKLEIKRTVAAPSVFIFPPSDEQLKSGTASVVCLLNNFYPREAKVQWKVDNALQSGNSQESVTEQDSKDSTYSLSSTLTLSKADYEKHKVYACEVTHQGLSSPVTKSFNRGEC",koff [4]: 0.000776 s⁻¹; kon [4]: 268000 M⁻¹ s⁻¹
0.00897 s⁻¹,494000 M⁻¹ s⁻¹,0.9,0.00857 s⁻¹,553000 M⁻¹ s⁻¹,0.3,–,–,–,–,–,–,–,–,"C1_IPN009VH2-SG4GK/IPN93L0029-SK1 (antibody, human IgG4 S228P, kappa, name in Kabat numbering, V domains shown, also called IPN009VH2/IPN93L0029) VH: EVMLVESGGGLVKPGGSLRLSCAASGFTFSNYAMSWVRQAPGKGLEWVATISSGGSHTYYLDSVKGRFTISRDNSKDTLYLQMNSLRAEDTALYYCARLFTGYAMDYWGQGTLVTVSS VL: QIVLTQSPATLSLSPGERATLSCTASSSVSSSYLHWYQQKPGKAPKLWIYSTSNLASGVPSRFSGSGSGTDYTLTISSLQPEDFATYYCHQYHRLHPITFGQGTKLEIKR",Kd [1]: 18.2 nM; Kd [3]: 15.5 nM; Kd [6]: 5.54 nM; koff [6]: 0.00296 s⁻¹; kon [6]: 534000 M⁻¹ s⁻¹
